Reference: patent publication US20100297003A1 (TECNOGEN S C P A, published 2010)
Values belong to the molecule of their own block, whether it stands above or below them.

What was measured:
human tenascin C (human) [1] = biological target: human tenascin C (human) (UniProt P24821); assay: BIAcore on tenascin C
[2] = biological target: T1, Tn (A(1-4)-D) fragment of human tenascin (human, UniProt P24821 1076-1711, limits assumed); assay: BIAcore on Tn (A1-4-D) fragment
T1 construct: domain: A(1-4)-D
T1 sequence (looked up): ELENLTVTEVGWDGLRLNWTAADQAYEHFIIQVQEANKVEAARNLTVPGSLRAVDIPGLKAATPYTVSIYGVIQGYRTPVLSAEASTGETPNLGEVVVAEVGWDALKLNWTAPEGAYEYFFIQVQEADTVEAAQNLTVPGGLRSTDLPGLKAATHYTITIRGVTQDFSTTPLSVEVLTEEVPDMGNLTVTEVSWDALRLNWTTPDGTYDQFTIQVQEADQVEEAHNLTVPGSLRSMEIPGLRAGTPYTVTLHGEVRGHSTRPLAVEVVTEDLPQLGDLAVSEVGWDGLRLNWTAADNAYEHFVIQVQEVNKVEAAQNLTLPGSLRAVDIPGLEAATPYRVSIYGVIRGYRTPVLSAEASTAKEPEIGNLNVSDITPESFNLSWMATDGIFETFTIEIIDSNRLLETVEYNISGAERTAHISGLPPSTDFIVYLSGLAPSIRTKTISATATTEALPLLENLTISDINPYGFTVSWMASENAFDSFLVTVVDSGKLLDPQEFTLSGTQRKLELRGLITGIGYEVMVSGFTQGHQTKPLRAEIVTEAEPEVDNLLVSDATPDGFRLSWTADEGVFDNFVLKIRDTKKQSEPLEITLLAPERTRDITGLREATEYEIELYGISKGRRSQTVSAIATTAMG

human tenascin C (human) [3] = biological target: human tenascin C (human) (UniProt P24821); assay: BIAcore on whole tenascin
human tenascin C (human) [4] = biological target: human tenascin C (human) (UniProt P24821); assay: ELISA on tenascin C, biotinylated against non-biotinylated antibody
[5] = biological target: T1, Tn (A(1-4)-D) fragment of human tenascin; assay: ELISA on Tn A(1-4)-D fragment, biotinylated against non-biotinylated antibody
human tenascin C (human) [6] = biological target: human tenascin C (human) (UniProt P24821); assay: competitive ELISA on tenascin C; competitor biotinylated BC-2 at fixed concentration
[7] = biological target: T1, Tn (A(1-4)-D) fragment of human tenascin; assay: ELISA on plates coated with Tn A(1-4)-D fragment, reference BC-2
Experimental: The immunoreactivity of ST2485 was evaluated in comparison with BC-2 by ELISA assay on tenascin C and on the Tn A₍₁₋₄₎-D fragment, as shown in FIG. 7. The antibodies ST2485 and BC-2 and the normal mouse immunoglobulins (nMIgG) were dispensed at increasing concentrations on plates sensitised with tenascin C (a) or with the Tn A₍₁₋₄₎-D fragment (b); the addition of the secondary antimouse antibody labelled with alkaline phosphatase and the related chromogenic substrate (pNPP) made it possible to determine the dose-response curve of the antibodies. The amount of ST2485 necessary to obtain 1.0 OD is approximately 13 times less than the amount of BC-2 on whole tenascin (a), and approximately 10 times less than the amount of BC-2 on the Tn (A1-4-D) fragment (b).

human tenascin C (human) [8] = biological target: human tenascin C (human) (UniProt P24821); assay: ELISA on plates coated with tenascin C, alkaline phosphatase anti-mouse antibody, pNPP
[9] = biological target: T1, Tn (A(1-4)-D) fragment of human tenascin; assay: competitive ELISA on plates coated with Tn A(1-4)-D fragment; unlabelled antibody at increasing concentration against biotinylated BC-2 at a fixed concentration, HRP-streptavidin/TMB
Experimental: The biotinylated antibody BC-2, at a concentration established in preliminary experiments, is dispensed with non-biotinylated BC-2 (curve 1) or ST2485 (curve 2) in increasing concentrations on plates sensitised with the antigen tenascin C (a), or Tn A₍₁₋₄₎-D fragment (b). The binding of the biotinylated antibody is measured after addition of HRP-streptavidin and the related chromogenic substrate TMB.

[10] = biological target: T2, EGF-like fragment of human tenascin (human, UniProt P24821 174-621, limits assumed); assay: Western blot
T2 construct: domain: EGF-like
T2 sequence (looked up): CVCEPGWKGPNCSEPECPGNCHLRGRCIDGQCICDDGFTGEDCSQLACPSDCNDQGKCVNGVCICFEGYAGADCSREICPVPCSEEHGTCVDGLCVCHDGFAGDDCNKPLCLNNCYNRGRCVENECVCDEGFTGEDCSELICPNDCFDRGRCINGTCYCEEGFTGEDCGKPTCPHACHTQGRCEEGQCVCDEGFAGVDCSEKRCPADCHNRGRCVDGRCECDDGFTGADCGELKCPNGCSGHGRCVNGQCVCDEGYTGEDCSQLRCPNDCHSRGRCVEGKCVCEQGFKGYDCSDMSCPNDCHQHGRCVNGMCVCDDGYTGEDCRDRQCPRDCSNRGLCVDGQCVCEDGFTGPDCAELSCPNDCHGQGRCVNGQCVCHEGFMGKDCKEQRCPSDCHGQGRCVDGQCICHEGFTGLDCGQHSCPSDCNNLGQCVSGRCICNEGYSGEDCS

human tenascin C (human) [11] = biological target: human tenascin C (human) (UniProt P24821); assay: ELISA on plates coated with tenascin C, reference BC-2
human tenascin C (human) [12] = biological target: human tenascin C (human) (UniProt P24821); assay: BIAcore on whole tenascin, reference biotinylated BC-2

Chain of human tenascin C (human) (P24821 23-2201): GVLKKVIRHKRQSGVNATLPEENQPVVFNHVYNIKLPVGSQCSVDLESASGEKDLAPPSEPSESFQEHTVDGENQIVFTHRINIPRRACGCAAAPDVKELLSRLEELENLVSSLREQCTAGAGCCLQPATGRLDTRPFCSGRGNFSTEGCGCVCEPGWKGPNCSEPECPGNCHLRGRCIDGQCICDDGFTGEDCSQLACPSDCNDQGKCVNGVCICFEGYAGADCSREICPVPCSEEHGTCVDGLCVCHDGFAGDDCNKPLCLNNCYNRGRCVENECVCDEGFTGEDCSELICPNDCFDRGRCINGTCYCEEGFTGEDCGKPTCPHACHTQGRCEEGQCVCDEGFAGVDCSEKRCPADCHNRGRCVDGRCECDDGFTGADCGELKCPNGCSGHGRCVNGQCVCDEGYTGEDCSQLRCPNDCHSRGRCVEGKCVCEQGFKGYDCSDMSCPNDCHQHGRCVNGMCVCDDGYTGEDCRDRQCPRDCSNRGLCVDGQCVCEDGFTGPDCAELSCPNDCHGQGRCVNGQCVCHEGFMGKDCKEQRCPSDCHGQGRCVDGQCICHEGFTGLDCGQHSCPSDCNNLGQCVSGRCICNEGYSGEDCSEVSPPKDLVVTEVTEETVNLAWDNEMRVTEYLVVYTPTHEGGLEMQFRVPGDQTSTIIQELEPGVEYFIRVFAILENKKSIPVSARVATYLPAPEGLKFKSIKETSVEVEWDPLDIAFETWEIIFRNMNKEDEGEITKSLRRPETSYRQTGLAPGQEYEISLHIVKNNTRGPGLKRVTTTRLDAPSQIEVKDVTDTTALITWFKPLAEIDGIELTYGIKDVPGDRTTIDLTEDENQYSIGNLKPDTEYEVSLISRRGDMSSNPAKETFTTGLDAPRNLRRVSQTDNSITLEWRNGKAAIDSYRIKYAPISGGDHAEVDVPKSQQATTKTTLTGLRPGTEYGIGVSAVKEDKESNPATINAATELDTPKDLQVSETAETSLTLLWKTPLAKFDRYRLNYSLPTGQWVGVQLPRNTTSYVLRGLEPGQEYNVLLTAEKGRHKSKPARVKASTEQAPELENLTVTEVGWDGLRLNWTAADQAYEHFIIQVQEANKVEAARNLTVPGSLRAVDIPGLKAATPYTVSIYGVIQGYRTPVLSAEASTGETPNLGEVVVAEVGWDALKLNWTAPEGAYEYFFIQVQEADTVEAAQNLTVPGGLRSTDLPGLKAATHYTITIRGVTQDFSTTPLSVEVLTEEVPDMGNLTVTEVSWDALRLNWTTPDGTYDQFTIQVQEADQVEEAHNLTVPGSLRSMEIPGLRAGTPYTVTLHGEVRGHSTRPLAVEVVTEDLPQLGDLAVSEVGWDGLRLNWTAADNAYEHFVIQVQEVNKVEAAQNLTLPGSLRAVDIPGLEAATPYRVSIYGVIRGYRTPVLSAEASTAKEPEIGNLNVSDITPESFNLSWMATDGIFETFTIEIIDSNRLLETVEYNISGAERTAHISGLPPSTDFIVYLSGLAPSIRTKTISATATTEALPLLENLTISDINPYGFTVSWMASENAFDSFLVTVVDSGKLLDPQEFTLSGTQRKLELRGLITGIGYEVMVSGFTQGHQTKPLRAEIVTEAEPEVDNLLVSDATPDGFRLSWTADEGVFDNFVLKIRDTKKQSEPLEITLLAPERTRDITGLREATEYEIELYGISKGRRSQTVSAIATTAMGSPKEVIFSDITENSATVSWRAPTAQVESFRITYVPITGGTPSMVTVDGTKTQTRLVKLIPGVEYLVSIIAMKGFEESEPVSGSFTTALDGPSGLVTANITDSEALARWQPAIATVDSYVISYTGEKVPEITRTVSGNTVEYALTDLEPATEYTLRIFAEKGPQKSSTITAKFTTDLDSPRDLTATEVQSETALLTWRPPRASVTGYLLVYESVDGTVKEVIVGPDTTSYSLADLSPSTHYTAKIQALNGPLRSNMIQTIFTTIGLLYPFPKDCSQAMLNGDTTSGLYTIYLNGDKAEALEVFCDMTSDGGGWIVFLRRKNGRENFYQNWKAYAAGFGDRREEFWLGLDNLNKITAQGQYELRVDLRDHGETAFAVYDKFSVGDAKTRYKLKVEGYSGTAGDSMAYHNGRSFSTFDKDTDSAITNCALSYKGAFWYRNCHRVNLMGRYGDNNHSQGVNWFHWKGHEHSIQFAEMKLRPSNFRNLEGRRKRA

Kd (human tenascin C (human) [1]): 254 nM | Kd [2]: 73.9 nM
Molecule: anti-tenascin monoclonal antibody BC-2

% inhibition of BC-2 binding (human tenascin C (human) [6]): 40% | fold less antibody than BC-2 needed to obtain 1.0 OD [7]: ~10 fold | EC50 (read off the curve) (human tenascin C (human) [8]): 0.02 µg/mL | IC50 (read off the curve) [9]: ~0.03 µg/mL | Kd (human tenascin C (human) [1]): 0.977 nM | binding result [10]: no binding | fold less antibody than BC-2 needed to obtain 1.0 OD (human tenascin C (human) [11]): 13 fold | Kd [2]: 0.972 nM | koff [2]: 0.000319 s⁻¹ | kon [2]: 328000 M⁻¹ s⁻¹
B1: anti-human tenascin monoclonal antibody ST2485 (antibody, V domains shown)
VH: EVQLQQSGPELVKPGASMKISCKASGYSFTGYTMNWVKQSHGKNLEWIGLINPHNGGTTYNQKFKGKATLTVDKSSNTAYMELLSLTSEDSAVYYCTRPGGYYWFFDVWGAGTTVTVSS
VL: QIVLSQSPAILSASPGEKVTMTCRANSSVRFMHWYQQKPGSSPKPWIYATSNLASGVPARFSGSGSGTSYSVTISRVEAEDAATYYCQQWSSNSPRTFGGGTKVEIRR
modifications: part of the light chain is N-glycosylated (glycosylated and non-glycosylated variants; site not numbered)
notes: Mouse immunoglobulin of IgG1/k isotype from hybridoma cST2485

More lines, now with the values behind:

Molecule: biotinylated BC-2 (antibody)
Kd (human tenascin C (human) [3]): 371 nM | residual immunoreactivity (human tenascin C (human) [4]): 88% | residual immunoreactivity [5]: 83%

B2: biotinylated ST2485 (antibody, V domains shown)
VH: EVQLQQSGPELVKPGASMKISCKASGYSFTGYTMNWVKQSHGKNLEWIGLINPHNGGTTYNQKFKGKATLTVDKSSNTAYMELLSLTSEDSAVYYCTRPGGYYWFFDVWGAGTTVTVSS
VL: QIVLSQSPAILSASPGEKVTMTCRANSSVRFMHWYQQKPGSSPKPWIYATSNLASGVPARFSGSGSGTSYSVTISRVEAEDAATYYCQQWSSNSPRTFGGGTKVEIRR
modifications: biotinylated, 8.3 biotins/molecule of antibody (sites not given)
fold greater affinity than biotinylated BC-2 (human tenascin C (human) [12]): 100 fold | Kd (human tenascin C (human) [3]): 2.88 nM | residual immunoreactivity (human tenascin C (human) [4]): 76%
